Patent US20200199204A1 (UNITED STATES OF AMERICA AS REPRESENTED BY THE SECRETARY …, published 2020)

Columns and labels:
Test in all cases: cell-based or functional assay
HIV-1 Env of 6535.3 = HIV-1 Env of 6535.3 (HIV-1)
HIV-1 Env of CAP256.SU = HIV-1 Env of CAP256.SU (HIV-1)
HIV-1 Env of KER2008.12 = HIV-1 Env of KER2008.12 (HIV-1)
HIV-1 Env of TRJO.58 = HIV-1 Env of TRJO.58 (HIV-1)
HIV-1 Env of DU422.01 = HIV-1 Env of DU422.01 (HIV-1)
HIV-1 Env of Q461.e2 = HIV-1 Env of Q461.e2 (HIV-1)
HIV-1 Env of CAP244.D3 = HIV-1 Env of CAP244.D3 (HIV-1)
HIV-1 Env of ZM249.1 = HIV-1 Env of ZM249.1 (HIV-1)
HIV-1 Env of CNE3 = HIV-1 Env of CNE3 (HIV-1)
HIV-1 Env of ZM214.15 = HIV-1 Env of ZM214.15 (HIV-1)
HIV-1 Env of TRO.11 = HIV-1 Env of TRO.11 (HIV-1)
HIV-1 Env of CAP256.PI = HIV-1 Env of CAP256.PI (HIV-1)
HIV-1 Env of 3016.V5.c36 = HIV-1 Env of 3016.V5.c36 (HIV-1)
HIV-1 Env of Q769.d22 = HIV-1 Env of Q769.d22 (HIV-1)
HIV-1 Env of ZM135.10a = HIV-1 Env of ZM135.10a (HIV-1)
HIV-1 Env of AC10.29 = HIV-1 Env of AC10.29 (HIV-1)
HIV-1 Env of KER2018.11 = HIV-1 Env of KER2018.11 (HIV-1)
HIV-1 Env of THRO.18 = HIV-1 Env of THRO.18 (HIV-1)
HIV-1 Env of ZM233.6 = HIV-1 Env of ZM233.6 (HIV-1)
HIV-1 Env of 6405.v4.c34 = HIV-1 Env of 6405.v4.c34 (HIV-1)
HIV-1 Env of Q842.d12 = HIV-1 Env of Q842.d12 (HIV-1)
HIV-1 Env of ZM53.12 = HIV-1 Env of ZM53.12 (HIV-1)
HIV-1 Env of PVO.04 = HIV-1 Env of PVO.04 (HIV-1)
HIV-1 Env of 0260.v5.c36 = HIV-1 Env of 0260.v5.c36 (HIV-1)
HIV-1 Env of 191821.E6.1 = HIV-1 Env of 191821.E6.1 (HIV-1)
HIV-1 Env of TH976.17 = HIV-1 Env of TH976.17 (HIV-1)
HIV-1 Env of ZM109.4 = HIV-1 Env of ZM109.4 (HIV-1)
HIV-1 Env of UG037.8 = HIV-1 Env of UG037.8 (HIV-1)
HIV-1 Env of DU172.17 = HIV-1 Env of DU172.17 (HIV-1)
HIV-1 Env of CM244.ec1 = HIV-1 Env of CM244.ec1 (HIV-1)
HIV-1 Env of REJO.67 = HIV-1 Env of REJO.67 (HIV-1)
HIV-1 Env of RW020.2 = HIV-1 Env of RW020.2 (HIV-1)
HIV-1 Env of Q259.d2.17 = HIV-1 Env of Q259.d2.17 (HIV-1)
HIV-1 Env of WITO.33 = HIV-1 Env of WITO.33 (HIV-1)
HIV-1 Env of Q23.17 = HIV-1 Env of Q23.17 (HIV-1)
HIV-1 Env of C1080.c3 = HIV-1 Env of C1080.c3 (HIV-1)
HIV-1 Env of RHPA.7 = HIV-1 Env of RHPA.7 (HIV-1)
HIV-1 Env of CAP210.E8 = HIV-1 Env of CAP210.E8 (HIV-1)
HIV-1 Env of DU156.12 = HIV-1 Env of DU156.12 (HIV-1)
HIV-1 Env of 96ZM651.02 = HIV-1 Env of 96ZM651.02 (HIV-1)
HIV-1 Env of MB539.2B7 = HIV-1 Env of MB539.2B7 (HIV-1)
HIV-1 Env of CAP45.G3 = HIV-1 Env of CAP45.G3 (HIV-1)
HIV-1 Env of BG505.w6m = HIV-1 Env of BG505.w6m (HIV-1)
HIV-1 Env of SC422.8 = HIV-1 Env of SC422.8 (HIV-1)
HIV-1 Env of CAAN.A2 = HIV-1 Env of CAAN.A2 (HIV-1)
HIV-1 Env of QH0692.42 = HIV-1 Env of QH0692.42 (HIV-1)
HIV-1 Env of ZM197.7 = HIV-1 Env of ZM197.7 (HIV-1)
HIV-1 Env of MB201 = HIV-1 Env of MB201 (HIV-1)
HIV-1 Env of Q168.a2 = HIV-1 Env of Q168.a2 (HIV-1)

B1: CAP256-VRC26.04 (antibody, V domains shown)
VH: EVQLVESGGGVVQPGKSLRLSCAASQFSFNRYGMHWVRQAPGKGLEWVAAISYDGTDKYHADKVWGRFTISRDNSKNTLYLQMNSLRAEDTALYYCAKDLREDECEEWWSDYYDFGKQLPCRKSRGVAGIFDKWGQGTMVIVSS
VL: QPVLTQPPSVSAAPGQKVTISCSGSSSNIGNNFVSWYQQRPGTAPSLLIYETNKRPSGIPDRFSGSKSATSATLAITGLQTGDEADYYCATWAASLTSARVFGTGTKVIVSG
- neutralization IC50 (HIV-1 Env of 6535.3): > 50 µg/mL
- neutralization IC50 (HIV-1 Env of CAP256.SU): 0.003 µg/mL
- neutralization IC50 (HIV-1 Env of KER2008.12): > 50 µg/mL
- neutralization IC50 (HIV-1 Env of TRJO.58): > 50 µg/mL
- neutralization IC50 (HIV-1 Env of DU422.01): 4.17 µg/mL
- neutralization IC50 (HIV-1 Env of Q461.e2): > 50 µg/mL
- neutralization IC50 (HIV-1 Env of CAP244.D3): > 50 µg/mL
- neutralization IC50 (HIV-1 Env of ZM249.1): 11.4 µg/mL
- neutralization IC50 (HIV-1 Env of CNE3): > 50 µg/mL
- neutralization IC50 (HIV-1 Env of ZM214.15): > 50 µg/mL
- neutralization IC50 (HIV-1 Env of TRO.11): > 50 µg/mL
- neutralization IC50 (HIV-1 Env of CAP256.PI): > 50 µg/mL
- neutralization IC50 (HIV-1 Env of 3016.V5.c36): 0.283 µg/mL
- neutralization IC50 (HIV-1 Env of Q769.d22): > 50 µg/mL
- neutralization IC50 (HIV-1 Env of ZM135.10a): > 50 µg/mL
- neutralization IC50 (HIV-1 Env of AC10.29): > 50 µg/mL
- neutralization IC50 (HIV-1 Env of KER2018.11): 0.008 µg/mL
- neutralization IC50 (HIV-1 Env of THRO.18): > 50 µg/mL
- neutralization IC50 (HIV-1 Env of ZM233.6): 0.06 µg/mL
- neutralization IC50 (HIV-1 Env of 6405.v4.c34): > 50 µg/mL
- neutralization IC50 (HIV-1 Env of Q842.d12): > 50 µg/mL
- neutralization IC50 (HIV-1 Env of ZM53.12): 0.004 µg/mL
- neutralization IC50 (HIV-1 Env of PVO.04): > 50 µg/mL
- neutralization IC50 (HIV-1 Env of 0260.v5.c36): > 50 µg/mL
- neutralization IC50 (HIV-1 Env of 191821.E6.1): > 50 µg/mL
- neutralization IC50 (HIV-1 Env of TH976.17): > 50 µg/mL
- neutralization IC50 (HIV-1 Env of ZM109.4): > 50 µg/mL
- neutralization IC50 (HIV-1 Env of UG037.8): > 50 µg/mL
- neutralization IC50 (HIV-1 Env of DU172.17): > 50 µg/mL
- neutralization IC50 (HIV-1 Env of CM244.ec1): 0.361 µg/mL
- neutralization IC50 (HIV-1 Env of REJO.67): > 50 µg/mL
- neutralization IC50 (HIV-1 Env of RW020.2): > 50 µg/mL
- neutralization IC50 (HIV-1 Env of Q259.d2.17): 0.025 µg/mL
- neutralization IC50 (HIV-1 Env of WITO.33): > 50 µg/mL
- neutralization IC50 (HIV-1 Env of Q23.17): 23.6 µg/mL
- neutralization IC50 (HIV-1 Env of C1080.c3): 0.212 µg/mL
- neutralization IC50 (HIV-1 Env of RHPA.7): > 50 µg/mL
- neutralization IC50 (HIV-1 Env of CAP210.E8): 0.005 µg/mL
- neutralization IC50 (HIV-1 Env of DU156.12): 10.4 µg/mL
- neutralization IC50 (HIV-1 Env of 96ZM651.02): > 50 µg/mL
- neutralization IC50 (HIV-1 Env of MB539.2B7): > 50 µg/mL
- neutralization IC50 (HIV-1 Env of CAP45.G3): > 50 µg/mL
- neutralization IC50 (HIV-1 Env of BG505.w6m): 8.43 µg/mL
- neutralization IC50 (HIV-1 Env of SC422.8): > 50 µg/mL
- neutralization IC50 (HIV-1 Env of CAAN.A2): > 50 µg/mL
- neutralization IC50 (HIV-1 Env of QH0692.42): > 50 µg/mL
- neutralization IC50 (HIV-1 Env of ZM197.7): 0.254 µg/mL
- neutralization IC50 (HIV-1 Env of MB201): > 50 µg/mL
- neutralization IC50 (HIV-1 Env of Q168.a2): > 50 µg/mL
